# Measured values: article PMC3176292, “Mutations in Protein-Binding Hot-Spots on the Hub Protein Smad3 Differentially Affect Its Protein Interactions and Smad3-Regulated Gene Expression” (PLoS ONE, 2011)
# T1: Flag-SkiW274E, full length (UniProt P12755 1-728, W274E)
# T1 construct: plasmid pCMV5b-Flag-SkiW274E (from K. Luo); also called SkiW274E FL; SKI274E; source: HEK-293, transfected, in lysate
# T1 sequence (looked up): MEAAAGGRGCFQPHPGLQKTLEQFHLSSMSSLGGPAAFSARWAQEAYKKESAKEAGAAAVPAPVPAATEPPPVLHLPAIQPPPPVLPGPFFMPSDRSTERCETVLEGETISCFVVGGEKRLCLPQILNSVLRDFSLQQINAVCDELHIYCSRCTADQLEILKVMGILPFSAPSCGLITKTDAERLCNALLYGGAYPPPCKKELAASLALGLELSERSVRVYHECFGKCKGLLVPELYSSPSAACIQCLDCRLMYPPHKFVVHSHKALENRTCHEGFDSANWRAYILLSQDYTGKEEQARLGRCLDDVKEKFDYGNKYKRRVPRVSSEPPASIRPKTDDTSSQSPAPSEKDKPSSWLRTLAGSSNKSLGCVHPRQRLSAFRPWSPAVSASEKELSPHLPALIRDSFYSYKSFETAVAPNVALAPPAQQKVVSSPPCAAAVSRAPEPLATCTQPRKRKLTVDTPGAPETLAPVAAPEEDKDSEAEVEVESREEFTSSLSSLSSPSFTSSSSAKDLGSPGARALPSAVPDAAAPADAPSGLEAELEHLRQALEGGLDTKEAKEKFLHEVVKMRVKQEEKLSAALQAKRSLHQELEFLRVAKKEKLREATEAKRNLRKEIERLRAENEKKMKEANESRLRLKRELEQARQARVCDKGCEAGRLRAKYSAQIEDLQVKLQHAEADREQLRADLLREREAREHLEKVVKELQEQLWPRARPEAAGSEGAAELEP
# T2: Flag-Smad4, full length (UniProt Q13485 1-552)
# T2 construct: Smad4; plasmid pCMV5-Flag-Smad4 (from J. Massagué); also called Smad4 FL; source: HEK-293, transfected, in lysate
# T2 sequence (looked up): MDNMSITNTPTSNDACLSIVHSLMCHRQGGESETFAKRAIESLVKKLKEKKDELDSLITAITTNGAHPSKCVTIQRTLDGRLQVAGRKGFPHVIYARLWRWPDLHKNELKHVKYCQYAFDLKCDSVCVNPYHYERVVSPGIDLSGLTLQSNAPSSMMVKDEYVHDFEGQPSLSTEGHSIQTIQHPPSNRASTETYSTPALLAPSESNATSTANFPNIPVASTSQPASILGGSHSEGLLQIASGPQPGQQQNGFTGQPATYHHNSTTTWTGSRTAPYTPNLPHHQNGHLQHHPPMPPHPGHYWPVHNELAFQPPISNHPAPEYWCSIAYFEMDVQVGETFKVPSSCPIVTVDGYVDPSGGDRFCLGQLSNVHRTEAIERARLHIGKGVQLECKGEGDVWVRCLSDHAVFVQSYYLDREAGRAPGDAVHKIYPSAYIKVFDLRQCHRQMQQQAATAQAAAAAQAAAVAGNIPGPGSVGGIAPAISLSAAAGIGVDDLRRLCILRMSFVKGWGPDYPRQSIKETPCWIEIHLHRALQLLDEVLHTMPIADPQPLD
# T3: SARA Smad-binding domain (amino acids 665–721) on the 3xFlag-thioredoxin scaffold (UniProt O95405 767-823)
# T3 construct: SARA, amino acids 665–721; cloned into the unique RsrII site of pCI-3xFLAG-Trx; also called SARA aa665–721; TrxSARA; source: HEK-293, transfected, in lysate
# T3 sequence (looked up): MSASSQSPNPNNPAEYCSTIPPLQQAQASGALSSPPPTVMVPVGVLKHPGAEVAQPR
# T4: Ski Smad-binding domain (amino acids 2–56) on the 3xFlag-thioredoxin scaffold (UniProt P12755 2-56)
# T4 construct: Ski, amino acids 2–56; cloned into the unique RsrII site of pCI-3xFLAG-Trx; also called Ski aa2–56; TrxSki; source: HEK-293, transfected, in lysate
# T4 sequence (looked up): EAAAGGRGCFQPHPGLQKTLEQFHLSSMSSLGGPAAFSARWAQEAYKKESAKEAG
# Legend:
# Assay in all cases: co-IP; LUMIER: Renilla luciferase-Smad3 and Flag-tagged partner co-expressed with constitutively active Alk5 in HEK-293; Flag protein captured from cleared lysate (TNE: 10 mM Tris-HCl pH 7.8, 150 mM NaCl, 1 mM EDTA, 1% Igepal CA-630) on anti-Flag 96-well plates, 2 h at 4 °C; co-precipitated Renilla luciferase activity, TrxGA background subtracted, percent of wild-type Smad3
# Settings in all cases: partners not purified
# [1] = target: T1, Flag-SkiW274E, full length
# [2] = target: T2, Flag-Smad4, full length
# [3] = target: T3, SARA Smad-binding domain (amino acids …)
# [4] = target: T4, Ski Smad-binding domain (amino acids …)
# [5] = target: T5, Smurf2 Smad-binding domain (amino acids 252–330) on the Flag-thioredoxin scaffold (UniProt Q9HAU4 252-330)
# T5 construct: Smurf2, amino acids 252–330; also called Smurf2 aa252–330; TrxSmurf2; source: HEK-293, transfected, in lysate
# T5 sequence (Q9HAU4 252-330): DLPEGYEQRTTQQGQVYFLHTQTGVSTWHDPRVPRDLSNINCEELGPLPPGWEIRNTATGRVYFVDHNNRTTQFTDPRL
percent binding relative to wild-type Smad3 [1],percent binding relative to wild-type Smad3 [2],percent binding relative to wild-type Smad3 [3],percent binding relative to wild-type Smad3 [4],percent binding relative to wild-type Smad3 [5],Binder
31%,,,,,"Renilla luciferase-Smad3 D408H (natural protein, UniProt P84022 1-425, looked up, Smad3; source: HEK-293, transfected together with constitutively active Alk5, in lysate) MSSILPFTPPIVKRLLGWKKGEQNGQEEKWCEKAVKSLVKKLKKTGQLDELEKAITTQNVNTKCITIPRSLDGRLQVSHRKGLPHVIYCRLWRWPDLHSHHELRAMELCEFAFNMKKDEVCVNPYHYQRVETPVLPPVLVPRHTEIPAEFPPLDDYSHSIPENTNFPAGIEPQSNIPETPPPGYLSEDGETSDHQMNHSMDAGSPNLSPNPMSPAHNNLDLQPVTYCEPAFWCSISYYELNQRVGETFHASQPSMTVDGFTDPSNSERFCLGLLSNVNRNAAVELTRRHIGRGVRLYYIGGEVFAECLSDSAIFVQSPNCNQRYGWHPATVCKIPPGCNLKIFNNQEFAALLAQSVNQGFEAVYQLTRMCTIRMSFVKGWGAEYRRQTVTSTPCWIELHLNGPLQWLHKVLTQMGSPSIRCSSVS"
44%,27%,74%,2%,28%,"Renilla luciferase-Smad3 Y238A (natural protein, UniProt P84022 1-425, looked up, Smad3; source: HEK-293, transfected together with constitutively active Alk5, in lysate) MSSILPFTPPIVKRLLGWKKGEQNGQEEKWCEKAVKSLVKKLKKTGQLDELEKAITTQNVNTKCITIPRSLDGRLQVSHRKGLPHVIYCRLWRWPDLHSHHELRAMELCEFAFNMKKDEVCVNPYHYQRVETPVLPPVLVPRHTEIPAEFPPLDDYSHSIPENTNFPAGIEPQSNIPETPPPGYLSEDGETSDHQMNHSMDAGSPNLSPNPMSPAHNNLDLQPVTYCEPAFWCSISYAELNQRVGETFHASQPSMTVDGFTDPSNSERFCLGLLSNVNRNAAVELTRRHIGRGVRLYYIGGEVFAECLSDSAIFVQSPNCNQRYGWHPATVCKIPPGCNLKIFNNQEFAALLAQSVNQGFEAVYQLTRMCTIRMSFVKGWGAEYRRQTVTSTPCWIELHLNGPLQWLDKVLTQMGSPSIRCSSVS"
59%,49%,78%,4%,31%,"Renilla luciferase-Smad3 R292A (natural protein, UniProt P84022 1-425, looked up, Smad3; source: HEK-293, transfected together with constitutively active Alk5, in lysate) MSSILPFTPPIVKRLLGWKKGEQNGQEEKWCEKAVKSLVKKLKKTGQLDELEKAITTQNVNTKCITIPRSLDGRLQVSHRKGLPHVIYCRLWRWPDLHSHHELRAMELCEFAFNMKKDEVCVNPYHYQRVETPVLPPVLVPRHTEIPAEFPPLDDYSHSIPENTNFPAGIEPQSNIPETPPPGYLSEDGETSDHQMNHSMDAGSPNLSPNPMSPAHNNLDLQPVTYCEPAFWCSISYYELNQRVGETFHASQPSMTVDGFTDPSNSERFCLGLLSNVNRNAAVELTRRHIGAGVRLYYIGGEVFAECLSDSAIFVQSPNCNQRYGWHPATVCKIPPGCNLKIFNNQEFAALLAQSVNQGFEAVYQLTRMCTIRMSFVKGWGAEYRRQTVTSTPCWIELHLNGPLQWLDKVLTQMGSPSIRCSSVS"
72%,20%,72%,3%,19%,"Renilla luciferase-Smad3 R243A (natural protein, UniProt P84022 1-425, looked up, Smad3; source: HEK-293, transfected together with constitutively active Alk5, in lysate) MSSILPFTPPIVKRLLGWKKGEQNGQEEKWCEKAVKSLVKKLKKTGQLDELEKAITTQNVNTKCITIPRSLDGRLQVSHRKGLPHVIYCRLWRWPDLHSHHELRAMELCEFAFNMKKDEVCVNPYHYQRVETPVLPPVLVPRHTEIPAEFPPLDDYSHSIPENTNFPAGIEPQSNIPETPPPGYLSEDGETSDHQMNHSMDAGSPNLSPNPMSPAHNNLDLQPVTYCEPAFWCSISYYELNQAVGETFHASQPSMTVDGFTDPSNSERFCLGLLSNVNRNAAVELTRRHIGRGVRLYYIGGEVFAECLSDSAIFVQSPNCNQRYGWHPATVCKIPPGCNLKIFNNQEFAALLAQSVNQGFEAVYQLTRMCTIRMSFVKGWGAEYRRQTVTSTPCWIELHLNGPLQWLDKVLTQMGSPSIRCSSVS"
62%,18%,116%,2%,21%,"Renilla luciferase-Smad3 R268A (natural protein, UniProt P84022 1-425, looked up, Smad3; source: HEK-293, transfected together with constitutively active Alk5, in lysate) MSSILPFTPPIVKRLLGWKKGEQNGQEEKWCEKAVKSLVKKLKKTGQLDELEKAITTQNVNTKCITIPRSLDGRLQVSHRKGLPHVIYCRLWRWPDLHSHHELRAMELCEFAFNMKKDEVCVNPYHYQRVETPVLPPVLVPRHTEIPAEFPPLDDYSHSIPENTNFPAGIEPQSNIPETPPPGYLSEDGETSDHQMNHSMDAGSPNLSPNPMSPAHNNLDLQPVTYCEPAFWCSISYYELNQRVGETFHASQPSMTVDGFTDPSNSEAFCLGLLSNVNRNAAVELTRRHIGRGVRLYYIGGEVFAECLSDSAIFVQSPNCNQRYGWHPATVCKIPPGCNLKIFNNQEFAALLAQSVNQGFEAVYQLTRMCTIRMSFVKGWGAEYRRQTVTSTPCWIELHLNGPLQWLDKVLTQMGSPSIRCSSVS"
53%,19%,119%,3%,24%,"Renilla luciferase-Smad3 Y384A (natural protein, UniProt P84022 1-425, looked up, Smad3; source: HEK-293, transfected together with constitutively active Alk5, in lysate) MSSILPFTPPIVKRLLGWKKGEQNGQEEKWCEKAVKSLVKKLKKTGQLDELEKAITTQNVNTKCITIPRSLDGRLQVSHRKGLPHVIYCRLWRWPDLHSHHELRAMELCEFAFNMKKDEVCVNPYHYQRVETPVLPPVLVPRHTEIPAEFPPLDDYSHSIPENTNFPAGIEPQSNIPETPPPGYLSEDGETSDHQMNHSMDAGSPNLSPNPMSPAHNNLDLQPVTYCEPAFWCSISYYELNQRVGETFHASQPSMTVDGFTDPSNSERFCLGLLSNVNRNAAVELTRRHIGRGVRLYYIGGEVFAECLSDSAIFVQSPNCNQRYGWHPATVCKIPPGCNLKIFNNQEFAALLAQSVNQGFEAVYQLTRMCTIRMSFVKGWGAEARRQTVTSTPCWIELHLNGPLQWLDKVLTQMGSPSIRCSSVS"
